Test system: MS2 coat protein
Assay: apparent KD of MS2 coat protein; designed switch direction (-1 OFF switch, 1 ON switch): 1; higher = weaker reporter binding
Outline: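 Three titration conditions were used: no input, 200 uM small-molecule ligand, and an oligonucleotide input. In each, SNAP-549-labelled MS2 coat protein was raised from 0.7 or 1.5 nM, doubling, to 3 µM over designed RNA switches transcribed on Illumina chips by stalled E. coli RNA polymerase. Curve fits of normalised cluster fluorescence gave values whose per-design median over clusters is the apparent KD.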

[1] = input ligand: microRNA oligo, concentration not stated
[2] = Eterna round: R95, input ligand: FMN 200 uM
[3] = Eterna round: R95, input ligand: microRNA oligo, concentration not stated
[4] = Eterna round: R95, input ligand: none

Sequence	apparent KD of MS2 coat protein (input ligand: FMN 200 uM)	apparent KD of MS2 coat protein [1]	apparent KD of MS2 coat protein (input ligand: none)	apparent KD of MS2 coat protein [2]	apparent KD of MS2 coat protein [3]	apparent KD of MS2 coat protein [4]
GGAGGAUUCGCAGGAUAUUCCUGAACACUGUAGGAAGAAGGGUGACGUAUCAGCACCAAGUGACAUGAGGAUCACCCAUGUUAA [Eternabot solution 24] (Eterna round: R96, puzzle: Same State NG 1)	137 nM	93.7 nM	114 nM			
GGAUGAUUAACAGGAUAUCAUUUGUAAAUUCGAUGAGAAGGGUUGAUUACUUACACGACGUGUUACAUGAGGAUCACCCAUGUU [SameState NG1 #6] (Eterna round: R96, puzzle: Same State NG 1)	372 nM	385 nM	548 nM			
GGCAUGCGGCGUACCGUAUGCUGGUAUGUACAUGAGGAUCACCCAUGUCAUGUACAGGCUUUUUGCUCGUCUUAUUG [JL-shm-2.40 JL mod] (puzzle: Sensor for hsa-mir-208a)				128 nM	28.7 nM	157 nM
GGCCUGUAGACAGGAUAUGGGAAAGGAAGUGUACCAGAAGGGUCAAAGAUAUAGGUGGACAUGAGGAUCACCCAUGUAAUUAAC [PowerStrip SSNG 1.21] (Eterna round: R96, puzzle: Same State NG 1)	56.6 nM	70.5 nM	105 nM			
GGCCUGUGUCAAGGAUAUGCUACCGUUUCGGUAGCAGAAGGUGAUCACAUGAGGAUCACCCAUGUUUACGCGAACACGCGCGCC (Eterna round: R96, puzzle: Same State NG 1)	193 nM	70.6 nM	79.6 nM			
GGCUAUCGCGUUCGAUAGCUUAAGCAUGUACAUGAGGAUCACCCAUGUCAUGUACAAGCUUUUUGCUCGUAUCUUAU (puzzle: Sensor for hsa-mir-208a)				94.6 nM	12.1 nM	119 nM
GGCUAUCGGCGUACCGAUAGCUGGUAUGUACAUGAGGAUCACCCAUGUCAUGUACAGGCUUGUUGCUCGUCUUAUUG [JL-shm-2.38 JL mod] (puzzle: Sensor for hsa-mir-208a)				144 nM	33 nM	165 nM
GGGAGAGCCGCAGGAUAUGGUGAGGAUUACCCACUAGAAGGGUGGACAUGAGAAUCGAACAUGAGGAUCACCCAUGUUCUGAGG (Eterna round: R96, puzzle: Same State NG 1)	200 nM	219 nM	386 nM			
GGGAGAGGCGCAGGAUAUGGUGAGGAUCACCCACUAGAAGGGUGCACAUGAGAAUCGGACAUGAGGAUCACCCAUGUUUGGCGC (Eterna round: R96, puzzle: Same State NG 1)	393 nM	121 nM	565 nM			
GGGAGAGGCGCAGGAUAUGGUGAGGAUUACCCACUAGAAGGGUGCACAUGAGAAUCGAACAUGAGGAUCACCCAUGUUCUGAGC (Eterna round: R96, puzzle: Same State NG 1)	189 nM	187 nM	230 nM			
GGUAGGUUACUACCAAACAUGAGGAUCACCCAUGUAAAUGGGAAGGAUAUGGUACCUAUUUGGUACCAGAAGGUCUAAUUAAUU [JL Fiskers NG3ss - 2 mod 1] (Eterna round: R96, puzzle: Same State NG 3)	332 nM	479 nM	553 nM			
GGUAGGUUACUACCAAACAUGAGGAUCACCCAUGUAAGUGGGAAGGAUAUGGUACCUUUUAGGUACCAGAAGGUCCAUAAAAUU [JL Fiskers NG3ss - 2 mod 7] (Eterna round: R96, puzzle: Same State NG 3)	314 nM	355 nM	2090 nM			
GGUAGGUUACUACCAAACAUGAGGAUCACCCAUGUAAGUGGGAAGGAUAUGGUACCUUUUAGGUACCAGAAGGUCCAUAUAGUA [JL Fiskers NG3ss - 2 mod 10] (Eterna round: R96, puzzle: Same State NG 3)	254 nM	783 nM	1000 nM			
GGUAUUAACACAGGAUAUGCUUACGAAACGUAAGCAGAAGGGUGAACAUGAGGAUCACCCAUGUUUGUACCAGGGCGUGAGCCC [JL SSNG1 1.72] (Eterna round: R96, puzzle: Same State NG 1)	349 nM	632 nM	923 nM			
GGUCCAGCCUGAGCUGGACAAAAGCAUGUACAUGAGGAUCACCCAUGUUCAUGUACAAGCUUUUUGCUCGUCUUACC [salish99_208a_r3_090x] (puzzle: Sensor for hsa-mir-208a)				570 nM	15.9 nM	823 nM
GGUCCAGCCUGAGCUGGACAAAAGCAUGUACAUGAGGAUCACCCAUGUUCAUGUACAAGCUUUUUGCUCGUCUUACG [salish99_208a_r3_086] (puzzle: Sensor for hsa-mir-208a)				571 nM	19.2 nM	844 nM
GGUCCAGCCUGAGCUGGACAAAAGCAUGUACAUGAGGAUCACCCAUGUUCAUGUACAAGCUUUUUGCUCGUCUUAGC [salish99_208a_r3_071] (puzzle: Sensor for hsa-mir-208a)				534 nM	12.7 nM	468 nM
GGUCGGACAUGAGGAUCACCCAUGUGGUGAGCGGAAACGCCAUAGGAUAUCUGUCCGAAAAGGUCAGAGAAGGGUGAACCGACC [Fiskers NG3ss - 68] (Eterna round: R96, puzzle: Same State NG 3)	184 nM	311 nM	135 nM			
GGUCGGACUCACAUGAGGAUCACCCAUGUUCCGGAAACGGGAUAGGAUAUCUGUCCGAAAAGGUCAGAGAAGGGUCUACCGACC [Fiskers NG3ss - 55] (Eterna round: R96, puzzle: Same State NG 3)	1050 nM	236 nM	519 nM			
GGUGCCAAAUAAGCCUACAUGAGGAUCACCCAUGUAUGUAGGCAGGAUAUCGUAUGCAAAGCAUACGAGAAGGGCCUAGGCACC [Mat - Same State NG 3 - JL Mod - D63] (Eterna round: R96, puzzle: Same State NG 3)	18.8 nM	23.7 nM	41.3 nM			
GGUGCCAAUAAAGCCUACAUGAGGAUCACCCAUGUAUGUAGGUAGGAUAUCGUUUGCUUUGCAAACGAGAAGGGCCUAGGCACC [JL SSNG3 1.20] (Eterna round: R96, puzzle: Same State NG 3)	22.5 nM	40.2 nM	48.3 nM			
GGUGCGAAUAAAGCCUACAUGAGGAUCACCCAUGUAUGUAGGCAGGAUAUCGUUUGCUUUGCAAACGAGAAGGGCUGUCGCACC [JL SSNG3 1.16] (Eterna round: R96, puzzle: Same State NG 3)	21.9 nM	49 nM	70.7 nM			
GGUGGGUUACUACCAACACAUGAGGAUCACCCAUGUUUUGGGAAGGAUAUGGUACCUAUUUGGUACCAGAAGGUCCGGUUGGUG [salish99_SSNG3_r04_704] (Eterna round: R96, puzzle: Same State NG 3)	47.8 nM	100 nM	100 nM			
GGUGGGUUACUACCCACACAUGAGGAUCACCCAUGUAUUGGGAAGGAUAUGGUGCCUGUGUGGUACCAGAAGGUCGUGAAGGUG [SS-NG3-LRO19] (Eterna round: R96, puzzle: Same State NG 3)	580 nM	312 nM	3470 nM			
GGUGGGUUGCUACCAACACAUGAGGAUCACCCAUGUUUUGGGAAGGAUAUGGUACCUAUUUGGUACCAGAAGGUCCCGUUGGUG [salish99_SSNG3_r04_706] (Eterna round: R96, puzzle: Same State NG 3)	37.6 nM	40.4 nM	63.6 nM			
GGUGGGUUGCUGCCGGCACAUGAGGAUCACCCAUGUUUUGGGAAGGAUAUGGUACCUGUUUGGUGCCAGAAGGUCCCGUUGGUG [salish99_SSNG3_r04_711] (Eterna round: R96, puzzle: Same State NG 3)	864 nM	526 nM	522 nM			
GUAAAACAUGAGGAUCACCCAUGUAAUAAUAUGGGAGGAUAUCAGAUUUAAUUUAAUUUAUGAGAAGGCCUAAAUU [Mat - Same State 1 - Mod of Eli - D62] (puzzle: Same State 1)				43.4 nM	488 nM	596 nM
